Assay results reported in publication PMC10397247.

What was measured:
Experiment in all cases: two-hybrid library CCmax;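 also: natural log of median RNA to DNA barcode read ratio; higher means stronger binding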
4H1135-AA = molecular target: T1, 4H1135-AA
T1 chain: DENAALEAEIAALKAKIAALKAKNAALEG

4H1153-AA = molecular target: T2, 4H1153-AA; conditions: mean of both orientations
T2 chain: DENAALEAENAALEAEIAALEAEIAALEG

4H122-AA = molecular target: T3, 4H122-AA; conditions: mean of both orientations
T3 chain: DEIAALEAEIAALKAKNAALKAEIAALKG

4H1324-AA = molecular target: T4, 4H1324-AA; conditions: mean of both orientations
T4 chain: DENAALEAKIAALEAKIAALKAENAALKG

4H1352-AA = molecular target: T5, 4H1352-AA; conditions: mean of both orientations
T5 chain: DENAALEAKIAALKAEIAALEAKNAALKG

4H1401-AA = molecular target: T6, 4H1401-AA; conditions: mean of both orientations
T6 chain: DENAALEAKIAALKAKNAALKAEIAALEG

4H1552-AA = molecular target: T7, 4H1552-AA; conditions: mean of both orientations
T7 chain: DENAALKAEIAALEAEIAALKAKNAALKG

4H1636-AA = molecular target: T8, 4H1636-AA; conditions: mean of both orientations
T8 chain: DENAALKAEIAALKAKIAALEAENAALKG

4H1867-AA = molecular target: T9, 4H1867-AA; conditions: mean of both orientations
T9 chain: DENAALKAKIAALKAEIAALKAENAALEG

4H2078-AA = molecular target: T10, 4H2078-AA; conditions: mean of both orientations
T10 chain: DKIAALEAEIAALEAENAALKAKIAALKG

4H2151-AA = molecular target: T11, 4H2151-AA; conditions: mean of both orientations
T11 chain: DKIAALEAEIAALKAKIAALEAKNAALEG

4H2165-AA = molecular target: T12, 4H2165-AA; conditions: mean of both orientations
T12 chain: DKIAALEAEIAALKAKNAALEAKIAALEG

4H2190-AA = molecular target: T13, 4H2190-AA; conditions: mean of both orientations
T13 chain: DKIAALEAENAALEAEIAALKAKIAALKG

4H2277-AA = molecular target: T14, 4H2277-AA; conditions: mean of both orientations
T14 chain: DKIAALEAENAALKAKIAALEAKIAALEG

4H234-AA = molecular target: T15, 4H234-AA; conditions: mean of both orientations
T15 chain: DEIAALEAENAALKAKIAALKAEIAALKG

4H2354-AA = molecular target: T16, 4H2354-AA; conditions: mean of both orientations
T16 chain: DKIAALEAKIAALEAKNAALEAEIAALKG

4H2393-AA = molecular target: T17, 4H2393-AA; conditions: mean of both orientations
T17 chain: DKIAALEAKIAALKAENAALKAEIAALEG

4H2466-AA = molecular target: T18, 4H2466-AA; conditions: mean of both orientations
T18 chain: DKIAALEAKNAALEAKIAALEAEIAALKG

4H2505-AA = molecular target: T19, 4H2505-AA; conditions: mean of both orientations
T19 chain: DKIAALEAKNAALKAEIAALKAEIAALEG

4H2575-AA = molecular target: T20, 4H2575-AA; conditions: mean of both orientations
T20 chain: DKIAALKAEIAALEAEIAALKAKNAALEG

4H2617-AA = molecular target: T21, 4H2617-AA; conditions: mean of both orientations
T21 chain: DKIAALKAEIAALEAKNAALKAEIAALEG

4H2642-AA = molecular target: T22, 4H2642-AA; conditions: mean of both orientations
T22 chain: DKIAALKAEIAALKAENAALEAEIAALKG

4H2729-AA = molecular target: T23, 4H2729-AA; conditions: mean of both orientations
T23 chain: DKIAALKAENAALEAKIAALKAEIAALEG

4H2754-AA = molecular target: T24, 4H2754-AA; conditions: mean of both orientations
T24 chain: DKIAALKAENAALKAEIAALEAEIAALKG

4H2837-AA = molecular target: T25, 4H2837-AA; conditions: mean of both orientations
T25 chain: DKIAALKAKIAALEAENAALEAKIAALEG

4H2883-AA = molecular target: T26, 4H2883-AA; conditions: mean of both orientations
T26 chain: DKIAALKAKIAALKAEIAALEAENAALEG

4H2944-AA = molecular target: T27, 4H2944-AA; conditions: mean of both orientations
T27 chain: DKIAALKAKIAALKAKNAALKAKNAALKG

4H2949-AA = molecular target: T28, 4H2949-AA; conditions: mean of both orientations
T28 chain: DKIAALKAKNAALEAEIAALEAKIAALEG

4H3112-AA = molecular target: T29, 4H3112-AA; conditions: mean of both orientations
T29 chain: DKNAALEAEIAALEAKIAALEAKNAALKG

4H317-AA = molecular target: T30, 4H317-AA; conditions: mean of both orientations
T30 chain: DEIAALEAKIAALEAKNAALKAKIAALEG

4H3343-AA = molecular target: T31, 4H3343-AA; conditions: mean of both orientations
T31 chain: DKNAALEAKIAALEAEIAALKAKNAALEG

4H335-AA = molecular target: T32, 4H335-AA; conditions: mean of both orientations
T32 chain: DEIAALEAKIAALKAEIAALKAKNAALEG

4H342-AA = molecular target: T33, 4H342-AA; conditions: mean of both orientations
T33 chain: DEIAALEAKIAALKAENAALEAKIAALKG

4H3427-AA = molecular target: T34, 4H3427-AA; conditions: mean of both orientations
T34 chain: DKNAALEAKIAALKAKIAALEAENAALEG

4H3606-AA = molecular target: T35, 4H3606-AA; conditions: mean of both orientations
T35 chain: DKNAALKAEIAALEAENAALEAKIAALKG

4H3627-AA = molecular target: T36, 4H3627-AA; conditions: mean of both orientations
T36 chain: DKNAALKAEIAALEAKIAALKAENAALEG

4H3655-AA = molecular target: T37, 4H3655-AA; conditions: mean of both orientations
T37 chain: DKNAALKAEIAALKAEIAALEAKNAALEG

4H3844-AA = molecular target: T38, 4H3844-AA; conditions: mean of both orientations
T38 chain: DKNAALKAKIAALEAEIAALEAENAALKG

4H3921-AA = molecular target: T39, 4H3921-AA; conditions: mean of both orientations
T39 chain: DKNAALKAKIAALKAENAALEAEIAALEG

4H429-AA = molecular target: T40, 4H429-AA; conditions: mean of both orientations
T40 chain: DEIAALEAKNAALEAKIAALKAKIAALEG

4H454-AA = molecular target: T41, 4H454-AA; conditions: mean of both orientations
T41 chain: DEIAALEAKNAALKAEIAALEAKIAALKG

4H48-AA = molecular target: T42, 4H48-AA; conditions: mean of both orientations
T42 chain: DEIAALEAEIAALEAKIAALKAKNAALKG

4H566-AA = molecular target: T43, 4H566-AA; conditions: mean of both orientations
T43 chain: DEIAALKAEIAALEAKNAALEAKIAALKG

4H605-AA = molecular target: T44, 4H605-AA; conditions: mean of both orientations
T44 chain: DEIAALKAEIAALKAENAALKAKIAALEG

4H678-AA = molecular target: T45, 4H678-AA; conditions: mean of both orientations
T45 chain: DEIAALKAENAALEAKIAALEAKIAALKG

4H717-AA = molecular target: T46, 4H717-AA; conditions: mean of both orientations
T46 chain: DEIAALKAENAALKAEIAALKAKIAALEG

4H780-AA = molecular target: T47, 4H780-AA; conditions: mean of both orientations
T47 chain: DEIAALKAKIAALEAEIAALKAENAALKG

4H794-AA = molecular target: T48, 4H794-AA; conditions: mean of both orientations
T48 chain: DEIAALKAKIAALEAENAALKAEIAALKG

4H881-AA = molecular target: T49, 4H881-AA; conditions: mean of both orientations
T49 chain: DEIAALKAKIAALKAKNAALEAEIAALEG

4H906-AA = molecular target: T50, 4H906-AA; conditions: mean of both orientations
T50 chain: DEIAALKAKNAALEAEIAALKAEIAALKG

4H993-AA = molecular target: T51, 4H993-AA; conditions: mean of both orientations
T51 chain: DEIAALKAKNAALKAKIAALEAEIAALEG

4H1639-AA = molecular target: T52, 4H1639-AA
T52 chain: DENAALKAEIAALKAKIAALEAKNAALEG

4H1738-AA = molecular target: T53, 4H1738-AA; conditions: mean of both orientations
T53 chain: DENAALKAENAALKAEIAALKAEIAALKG

4H2219-AA = molecular target: T54, 4H2219-AA; conditions: mean of both orientations
T54 chain: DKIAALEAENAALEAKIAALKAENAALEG

4H249-AA = molecular target: T55, 4H249-AA; conditions: mean of both orientations
T55 chain: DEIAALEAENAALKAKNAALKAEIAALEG

4H2504-AA = molecular target: T56, 4H2504-AA; conditions: mean of both orientations
T56 chain: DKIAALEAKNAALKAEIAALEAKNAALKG

4H2592-AA = molecular target: T57, 4H2592-AA; conditions: mean of both orientations
T57 chain: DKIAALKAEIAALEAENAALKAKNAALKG

4H2611-AA = molecular target: T58, 4H2611-AA; conditions: mean of both orientations
T58 chain: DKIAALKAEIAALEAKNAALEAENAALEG

4H2774-AA = molecular target: T59, 4H2774-AA; conditions: mean of both orientations
T59 chain: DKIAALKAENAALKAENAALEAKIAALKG

4H3001-AA = molecular target: T60, 4H3001-AA; conditions: mean of both orientations
T60 chain: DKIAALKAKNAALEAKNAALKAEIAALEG

4H3340-AA = molecular target: T61, 4H3340-AA; conditions: mean of both orientations
T61 chain: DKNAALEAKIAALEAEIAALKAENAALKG

4H3381-AA = molecular target: T62, 4H3381-AA; conditions: mean of both orientations
T62 chain: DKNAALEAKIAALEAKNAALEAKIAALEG

4H347-AA = molecular target: T63, 4H347-AA; conditions: mean of both orientations
T63 chain: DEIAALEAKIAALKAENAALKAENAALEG

4H3493-AA = molecular target: T64, 4H3493-AA; conditions: mean of both orientations
T64 chain: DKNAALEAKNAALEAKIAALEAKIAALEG

4H376-AA = molecular target: T65, 4H376-AA; conditions: mean of both orientations
T65 chain: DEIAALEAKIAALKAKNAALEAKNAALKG

4H406-AA = molecular target: T66, 4H406-AA; conditions: mean of both orientations
T66 chain: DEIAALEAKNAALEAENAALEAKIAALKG

4H688-AA = molecular target: T67, 4H688-AA
T67 chain: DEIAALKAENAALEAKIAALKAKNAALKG

4H963-AA = molecular target: T68, 4H963-AA; conditions: mean of both orientations
T68 chain: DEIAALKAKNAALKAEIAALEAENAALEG

DENAALEAEIAALKAKIAALKAKNAALEG [4H1135-AA]
interaction score (4H1135-AA): -0.919
interaction score (4H1153-AA): -0.461
interaction score (4H122-AA): -1.24
interaction score (4H1324-AA): -1.33
interaction score (4H1352-AA): 0.703
interaction score (4H1401-AA): -1.46
interaction score (4H1552-AA): 0.834
interaction score (4H1636-AA): -0.92
interaction score (4H1867-AA): 0.0539
interaction score (4H2078-AA): -1.19
interaction score (4H2151-AA): -0.817
interaction score (4H2165-AA): -1.42
interaction score (4H2190-AA): -1.27
interaction score (4H2277-AA): -1.81
interaction score (4H234-AA): -1.27
interaction score (4H2354-AA): -1.64
interaction score (4H2393-AA): -1.45
interaction score (4H2466-AA): -1.49
interaction score (4H2505-AA): 1.53
interaction score (4H2575-AA): 0.484
interaction score (4H2617-AA): -0.407
interaction score (4H2642-AA): -1.3
interaction score (4H2729-AA): -0.655
interaction score (4H2754-AA): -0.686
interaction score (4H2837-AA): -0.865
interaction score (4H2883-AA): 1.22
interaction score (4H2944-AA): -1.57
interaction score (4H2949-AA): -1.21
interaction score (4H3112-AA): 1.57
interaction score (4H317-AA): -0.38
interaction score (4H3343-AA): -0.943
interaction score (4H335-AA): -0.173
interaction score (4H342-AA): -1.17
interaction score (4H3427-AA): -1.05
interaction score (4H3606-AA): 0.227
interaction score (4H3627-AA): 0.0922
interaction score (4H3655-AA): 1.88
interaction score (4H3844-AA): 0.92
interaction score (4H3921-AA): -0.897
interaction score (4H429-AA): -1.27
interaction score (4H454-AA): -0.222
interaction score (4H48-AA): 0.894
interaction score (4H566-AA): -0.252
interaction score (4H605-AA): -1.37
interaction score (4H678-AA): -0.965
interaction score (4H717-AA): -1.4
interaction score (4H780-AA): -1.44
interaction score (4H794-AA): -1.61
interaction score (4H881-AA): -1.61
interaction score (4H906-AA): -1.37
interaction score (4H993-AA): 0.00688

DENAALKAEIAALKAKIAALEAKNAALEG [4H1639-AA]
interaction score (4H1639-AA): 1.24
interaction score (4H1738-AA): -1.64
interaction score (4H2219-AA): -1.88
interaction score (4H249-AA): -1.52
interaction score (4H2504-AA): -1.77
interaction score (4H2592-AA): -1.85
interaction score (4H2611-AA): -1.52
interaction score (4H2774-AA): -1.35
interaction score (4H3001-AA): -2.12
interaction score (4H3340-AA): -1.63
interaction score (4H3381-AA): -1.7
interaction score (4H347-AA): -1.41
interaction score (4H3493-AA): -1.73
interaction score (4H376-AA): -1.37
interaction score (4H406-AA): -1.63
interaction score (4H688-AA): -1.18
interaction score (4H963-AA): -2.16
